# Residue numbers refer to the chain shown, from its start. Numbers in names are those of the source.
# T1: full-length human OX40 expressed on HuT78 cells (HuT78/OX40) (human, UniProt P43489 29-277)
# T1 sequence: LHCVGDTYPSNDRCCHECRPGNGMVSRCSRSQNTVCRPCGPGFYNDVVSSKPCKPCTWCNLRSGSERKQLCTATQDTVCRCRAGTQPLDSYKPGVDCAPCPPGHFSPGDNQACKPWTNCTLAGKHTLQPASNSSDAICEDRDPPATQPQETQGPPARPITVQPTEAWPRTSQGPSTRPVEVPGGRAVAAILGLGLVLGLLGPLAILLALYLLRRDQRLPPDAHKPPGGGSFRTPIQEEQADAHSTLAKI
# T2: recombinant OX40 protein with a His tag (Cat: 10481-H08H, Sino Biological) (UniProt P43489 29-216)
# T2 construct: Bought protein; also called OX40-His (bought); not shown: His tag
# T2 sequence (looked up): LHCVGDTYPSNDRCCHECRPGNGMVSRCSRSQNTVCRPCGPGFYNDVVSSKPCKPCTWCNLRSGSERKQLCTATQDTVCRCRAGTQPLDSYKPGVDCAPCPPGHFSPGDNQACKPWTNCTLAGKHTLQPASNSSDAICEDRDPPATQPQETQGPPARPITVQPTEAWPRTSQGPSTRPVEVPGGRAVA
# B1: 445-3 (antibody, V domains shown)
# VH: QVQLVQSGAEVKKPGSSVKVSCKASGYKFTSYIIHWVRQAPGQGLEWMGYINPYNEGTRYNQKFQGRVTLTADKSTSTAYMELSSLRSEDTAVYYCARGYYGSSYAMDYWGQGTTVTVSS
# VL: DIQMTQSPSSLSASVGDRVTITCRASQGISNYLNWYQQKPDGAIKLLIYDASTLYSGVPSRFSGSGSGTDFTLTISSLQPEDFATYYCQQYSKLPYTFGGGTKVEIK
# B2: 445-2 (antibody, V domains shown)
# VH: B1 VH with N61A
# VL: B1 VL with R24S, D41G, G42K
# B3: 445-3 IgG4 (antibody, V domains shown)
# VH: B1 VH
# VL: B1 VL
# B4: 445-1 (antibody, V domains shown)
# VH: B1 VH with E56D, A72S
# VL: B1 VL with R24S, D41G, G42K, A51T, F71Y
# B5: ch445 (antibody, V domains shown)
# VH: EVQLQQSGPELVKPGASVKMSCKASGYKFTSYIIHWVKQKPGQGLEWIGYINPYNDGTRYNEKFKGKATLTSDKSSSTAYMEYSSLTSEDSAVYYCARGYYGSSYAMDYWGQGTSVTVSS
# VL: DIQMTQTTSSLSASLGDRVTISCSASQGISNYLNWYQQKPDGTIKLLIYDTSTLYSGVPSRFSGSGSGTDYFLTISNLEPEDIATYYCQQYSKLPYTFGGGTKLEKK
# notes: also called Mu445 variable domains fused to human IgG1wt/kappa constant regions
# B6: 445-1-2(S24G) (antibody, human IgG1, V domains shown)
# VH: B1 VH with E56D, A72S
# VL: B1 VL with R24G, D41G, G42K, A51T, F71Y
# B7: 445-2(M48I)-1 (antibody, human IgG1, V domains shown)
# VH: B1 VH with M48I, E56D, A72S
# VL: B1 VL with R24S, D41G, G42K, A51T, F71Y
# B8: 445-1-2(S10T/E81D/D70E) (antibody, human IgG1, V domains shown)
# VH: B1 VH with E56D, A72S
# VL: B1 VL with S10T, R24S, D41G, G42K, A51T, D70E, F71Y, E81D
# B9: 445-3(Q62E)-3(S24R) (antibody, V domains shown)
# VH: B1 VH with N61A, Q62E
# VL: B1 VL with D41G, G42K
# B10: 445-3(A61N-K28R)-3 (antibody, V domains shown)
# VH: B1 VH with K28R
# VL: B1 VL
# B11: 445-3-3(G41D-K42G-S24R-K93R) (antibody, V domains shown)
# VH: B1 VH
# VL: B1 VL with K93R
# B12: 445-3(A61N-K63R)-3 (antibody, V domains shown)
# VH: B1 VH with K63R
# VL: B1 VL
# B13: 445-3(Q62E/Q65K)-3(S24R) (antibody, V domains shown)
# VH: B1 VH with N61A, Q62E, Q65K
# VL: B1 VL with D41G, G42K
# B14: 445-3(T30S)-3(S24R) (antibody, V domains shown)
# VH: B1 VH with T30S, N61A
# VL: B1 VL with D41G, G42K
# Target: T1, full-length human OX40 expressed on …
# Test: flow cytometry on HuT78/OX40 cells
# Experimental: (§1) Goat anti-Human IgG-FITC (Cat: A0556, Beyotime) was used as a secondary antibody for detection. EC₅₀ values for dose-dependent binding to human and cynomolgus monkey native OX40s were determined by fitting the dose-response data to the four-parameter logistic model with GraphPad Prism.
row,EC50 [µg/mL],Binder
1,0.174,B1

# Target: T3, cynomolgus OX40 expressed on HuT78 cells (HuT78/cynoOX40) (cynomolgus monkey)
# T3 construct: whole, on cells; also called cynomolgus monkey OX40
# Test: flow cytometry on HuT78/cynoOX40 cells
# Experimental: as §1
row,EC50 [µg/mL],Binder
1,0.171,B1

# Target: T1, full-length human OX40 expressed on …
# Test: flow cytometry on live HuT78/OX40 cells; Mean
# Experimental: (§2) To evaluate the binding activity of anti-OX40 antibodies to bind OX40 expressed on the surface of live cells, HuT78 cells were transfected with human OX40 as described in Example 1 to create an OX40 expressing line. Live HuT78/OX40 cells were seeded in 96-well plate and were incubated with a serial dilution of various anti-OX40 antibodies. Goat anti-Human IgG-FITC (Cat: A0556, Beyotime) was used as a secondary antibody to detect antibody binding to the cell surface. EC₅₀ values for dose-dependent binding to human OX40 were determined by fitting the dose-response data to the four-parameter logistic model with GraphPad Prism.
EC50 [µg/mL],Top(MFI),Binder
0.343,620,B2
0.263,892,B3
0.285,525,B4
0.328,910,B1
0.299,725,B5

# Target: T1, full-length human OX40 expressed on …
# Test: flow cytometry on live HuT78/OX40 cells; Test 1
# Experimental: as §2
row,EC50 [µg/mL],Binder
1,0.323,B2
2,0.263,B3
3,0.293,B4
4,0.337,B1
5,0.321,B5

# Target: T1, full-length human OX40 expressed on …
# Test: flow cytometry on live HuT78/OX40 cells; Test 2
# Experimental: as §2
row,EC50 [µg/mL],Binder
1,0.363,B2
2,0.278,B4
3,0.319,B1
4,0.277,B5

# Target: T2, recombinant OX40 protein with a His tag …
# Test: SPR, BIAcore T-200; antibody captured by anti-human IgG, OX40-His flowed; Mean
# Excerpt: (§3) The anti-OX40 antibodies were characterized for their binding kinetics and affinity by SPR assays using BIAcore™ T-200 (GE Life Sciences). Briefly, anti-human IgG antibody was immobilized on an activated CM5 biosensorchip (Cat: BR100530, GE Life Sciences). An antibody with human IgG Fc region was flowed over the chip surface and captured by anti-human IgG antibody. Then a serial dilution of recombinant OX40 protein with a His tag (Cat: 10481-H08H, Sino Biological) was flowed over the chip surface and changes in surface plasmon resonance signals were analyzed to calculate the association rates (ka) and dissociation rates (kd) by using the one-to-one Langmuir binding model (BIA Evaluation Software, GE Life Sciences). The equilibrium dissociation constant (KD) was calculated as the ratio kd/ka.
Ka [M⁻¹],Kd [nM],Binder
7.5e+07,13.5,B2
1e+08,10,B3
5.9e+07,17.1,B4
1.06e+08,9.47,B1
1.41e+08,7.28,B5

# Target: T1, full-length human OX40 expressed on …
# Test: FACS; cells not named on the sheet, HuT78/OX40 cells as in Example 5
EC50 [µg/mL],Top(MFI),Binder
0.307,470,B6
0.353,480,B7
0.336,500,B4
0.28,510,B8

# Target: T1, full-length human OX40 expressed on …
# Test: as above
# Remark: another data set of the same source
EC50 [µg/mL],Top(MFI),Binder
0.397,760,B2
0.363,760,B9
0.369,1080,B10
0.337,1050,B11
0.483,1100,B12
0.318,790,B13
0.405,800,B14
0.462,990,B1

# Target: T2, recombinant OX40 protein with a His tag …
# Test: SPR, BIAcore T-200; antibody captured by anti-human IgG, OX40-His flowed; Test 1
# Excerpt: as §3
Ka [M⁻¹],Kd [nM],koff [s⁻¹],kon [M⁻¹ s⁻¹],Binder
7.1e+07,14.2,0.0039,276000,B2
1e+08,10,,,B3
5.6e+07,17.8,0.00277,156000,B4
1.09e+08,9.16,,,B1
1.22e+08,8.26,0.00143,174000,B5

# Target: T2, recombinant OX40 protein with a His tag …
# Test: SPR, BIAcore T-200; antibody captured by anti-human IgG, OX40-His flowed; Test 2
# Excerpt: as §3
Ka [M⁻¹],Kd [nM],koff [s⁻¹],kon [M⁻¹ s⁻¹],Binder
7.8e+07,12.8,0.00264,206000,B2
6.1e+07,16.4,0.00389,237000,B4
1.03e+08,9.77,,,B1
1.59e+08,6.3,0.00167,265000,B5

# Target: T2, recombinant OX40 protein with a His tag …
# Test: Biacore (SPR); antigen not named on the sheet, OX40-His as in Example 4
Kd [nM],koff [s⁻¹],kon [M⁻¹ s⁻¹],Binder
16.2,0.0036,222000,B6
15.5,0.00356,230000,B7
14.9,0.0034,228000,B8

# Target: T2, recombinant OX40 protein with a His tag …
# Test: as above
# Remark: another data set of the same source
Kd [nM],koff [s⁻¹],kon [M⁻¹ s⁻¹],Binder
11.7,0.00227,194000,B9
7.35,0.00115,157000,B10
7.9,0.00168,212000,B11
9.65,0.00155,161000,B12
12.4,0.00232,187000,B13
13.1,0.00381,291000,B14
8.51,,,B1
